Results on three molecules are retold here after patent US20150322445A1.

In experiment [1] the target is Leavenworthia alabamica Lal2 polypeptide, a1-1 allele (Leavenworthia alabamica). As to the kind of experiment: cell-based or functional assay.
Experiment [2] has as its target Leavenworthia alabamica Lal2 polypeptide, a1-2 allele (Leavenworthia alabamica). The experiment is described as follows: cell-based or functional assay.

Sequence of Leavenworthia alabamica Lal2 polypeptide, a1-1 allele (Leavenworthia alabamica) (chain, as listed by the source limits assumed, form in doubt): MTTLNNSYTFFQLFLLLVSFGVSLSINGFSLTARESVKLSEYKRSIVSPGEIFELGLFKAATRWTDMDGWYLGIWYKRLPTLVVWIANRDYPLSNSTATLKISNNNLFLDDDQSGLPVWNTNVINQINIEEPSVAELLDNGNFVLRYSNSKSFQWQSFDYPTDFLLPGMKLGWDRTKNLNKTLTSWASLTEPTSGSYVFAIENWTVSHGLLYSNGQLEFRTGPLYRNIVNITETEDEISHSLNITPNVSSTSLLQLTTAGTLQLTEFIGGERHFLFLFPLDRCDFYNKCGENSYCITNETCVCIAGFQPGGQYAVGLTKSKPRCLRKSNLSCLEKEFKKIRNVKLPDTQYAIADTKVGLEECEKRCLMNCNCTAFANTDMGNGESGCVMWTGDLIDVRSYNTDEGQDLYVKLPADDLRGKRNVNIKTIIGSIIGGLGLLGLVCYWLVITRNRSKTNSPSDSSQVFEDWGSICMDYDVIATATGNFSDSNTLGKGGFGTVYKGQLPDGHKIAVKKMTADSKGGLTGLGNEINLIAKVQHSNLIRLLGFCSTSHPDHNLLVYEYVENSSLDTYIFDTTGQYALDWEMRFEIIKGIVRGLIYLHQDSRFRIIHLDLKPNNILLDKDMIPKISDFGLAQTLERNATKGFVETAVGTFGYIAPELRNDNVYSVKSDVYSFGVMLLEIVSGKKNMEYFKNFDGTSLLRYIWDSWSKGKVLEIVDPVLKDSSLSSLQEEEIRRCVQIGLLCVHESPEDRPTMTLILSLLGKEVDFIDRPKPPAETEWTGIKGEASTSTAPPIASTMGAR
Sequence of Leavenworthia alabamica Lal2 polypeptide, a1-2 allele (Leavenworthia alabamica) (main, as listed by the source): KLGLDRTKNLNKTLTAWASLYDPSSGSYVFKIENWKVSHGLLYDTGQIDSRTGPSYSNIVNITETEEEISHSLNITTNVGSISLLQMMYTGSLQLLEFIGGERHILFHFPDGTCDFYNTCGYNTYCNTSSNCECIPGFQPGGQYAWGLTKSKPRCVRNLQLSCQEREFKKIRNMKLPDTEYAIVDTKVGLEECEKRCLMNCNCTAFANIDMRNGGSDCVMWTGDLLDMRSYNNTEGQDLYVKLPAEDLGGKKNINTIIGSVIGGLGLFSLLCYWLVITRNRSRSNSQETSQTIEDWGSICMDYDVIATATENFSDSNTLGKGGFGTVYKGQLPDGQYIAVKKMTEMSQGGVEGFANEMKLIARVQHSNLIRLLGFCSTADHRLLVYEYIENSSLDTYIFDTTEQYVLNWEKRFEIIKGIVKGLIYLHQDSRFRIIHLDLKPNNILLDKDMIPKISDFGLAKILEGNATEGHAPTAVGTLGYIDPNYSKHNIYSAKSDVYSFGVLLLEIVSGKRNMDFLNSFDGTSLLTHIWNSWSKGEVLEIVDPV

Regarding “Leavenworthia alabamica SCRL polypeptide, a1-1 allele”, in experiment [1], the Pollen rejection reactions observed (fewer than ten pollen tubes in the pistil); female line 1-15 (Lal2 transformant) x male line 3-13 (SCRL transformant), 5 crosses is 3 of 5 crosses. Turning to “Leavenworthia alabamica SCRL polypeptide, a1-1 allele (ligand)”, in experiment [1], the Pollen rejection reactions observed (fewer than ten pollen tubes in the pistil); female line 1-15 (Lal2 transformant) x male line 4-21 (SCRL transformant), 5 crosses is 3 of 5 crosses; the Pollen rejection reactions observed (fewer than ten pollen tubes in the pistil); female line 1-25 (Lal2 transformant) x male line 3-13 (SCRL transformant), 5 crosses is 4 of 5 crosses; the Pollen rejection reactions observed (fewer than ten pollen tubes in the pistil); female line 1-25 (Lal2 transformant) x male line 4-21 (SCRL transformant), 5 crosses was 1 of 5 crosses.

Regarding MAKSVRLISFIIYLTINMLIFAVNPKPHSSQVPPIPDPGKHRRCF (ligand) [Leavenworthia alabamica SCRL, a2 allele (truncated protein)], in experiment [2], the Crosses that produced fruit or had germinated pollen tubes; a1-2 recipient plant x a2 pollen donors (% of 9 crosses) is 89.
